# B1: Hairpin Ribozyme (parent)
# chain: GUCCUCUUUCACGUGCGCGUGAAAGAGAGAAGUGAACCAGAGAAACACACGUUGUGGUAUAUUACCUGGUA
# Variants of: B1
# Assay: self-cleavage, relative activity (ratio to wild type); higher = more cleavage; co-transcriptional
row,Variant,self-cleavage
1,GUCCUCUUUCACGUGCGCGUGAAAGAGAGAAGUGAACCAGAGAAACUCACGUUGAGGUAUAUUACCUGGUA [A47U U55A],0.161
2,GUCCUCUUUCACGUGCGCGUGAAAGAGAGAAGUGAACCAGAGAAACUCACGUUGUGGUAUAUUACUUGGUA [A47U C66U],0.228
3,GUCCUCUUUCACGUGCGCGUGAAAGAGAGAAGUGAACCAGAGAAACUCACGUUGUGGUAUAUUACAUGGUA [A47U C66A],0.157
4,GUCCUCUUUCACGUGCGCGUGAAAGAGAGAAGUGAACCAGAGAAACAAACGUUGUGAUAUAUUACCUGGUA [C48A G57A],0.121
5,GUCCUCUUUCACGUGCGCGUGAAAGAGAGAAGUGAACCAGAGAAACAAACGUUAUGGUAUAUUACCUGGUA [C48A G54A],0.169
6,GUCCUCUUUCACGUGCGCGUGAAAGAGAGAAGUGAACCAGAGAAACAAACGUUGUGGUAUAUUACCUGCUA [C48A G69C],0.135
7,GUCCUCUUUCACGUGCGCGUGAAAGAGAGAAGUGAACCAGAGAAACUCAUGUUGUGGUAUAUUACCUGGUA [A47U C50U],0.171
8,GUCCUCUUUCACGUGCGCGUGAAAGAGAGAAGUGAACCAGAGAAACUGACGUUGUGGUAUAUUACCUGGUA [A47U C48G],0.137
9,GUCCUCUUUCACGUGCGCGUGAAAGAGAGAAGUGAACCAGAGAAACUCACGCUGUGGUAUAUUACCUGGUA [A47U U52C],0.0664
10,GUCCUCUUUCACGUGCGCGUGAAAGAGAGAAGUGAACCAGAGAAACUCACGUUGUGGUAUAAUACCUGGUA [A47U U62A],0.114
11,GUCCUCUUUCACGUGCGCGUGAAAGAGAGAAGUGAACCAGAGAAACAAACGUUGUGGUAUAUUAGCUGGUA [C48A C65G],0.132
12,GUCCUCUUUCACGUGCGCGUGAAAGAGAGAAGUGAACCAGAGAAACAAACGUUGUGGUAUAUUAUCUGGUA [C48A C65U],0.189
13,GUCCUCUUUCACGUGCGCGUGAAAGAGAGAAGUGAACCAGAGAAACUCACGUUGUGGUAUAUCACCUGGUA [A47U U63C],0.175
14,GUCCUCUUUCACGUGCGCGUGAAAGAGAGAAGUGAACCAGAGAAACUCACGUUUUGGUAUAUUACCUGGUA [A47U G54U],0.145
15,GUCCUCUUUCACGUGCGCGUGAAAGAGAGAAGUGAACCAGAGAAACUCACGUUAUGGUAUAUUACCUGGUA [A47U G54A],0.159
16,GUCCUCUUUCACGUGCGCGUGAAAGAGAGAAGUGAACCAGAGAAACUCACGUUCUGGUAUAUUACCUGGUA [A47U G54C],0.144
17,GUCCUCUUUCACGUGCGCGUGAAAGAGAGAAGUGAACCAGAGAAACAAACGUUGUCGUAUAUUACCUGGUA [C48A G56C],0.131
18,GUCCUCUUUCACGUGCGCGUGAAAGAGAGAAGUGAACCAGAGAAACUCACGUUGUGGUAUAUUACCUUGUA [A47U G68U],0.224
19,GUCCUCUUUCACGUGCGCGUGAAAGAGAGAAGUGAACCAGAGAAACAAACGUUGUGGUAUAUUGCCUGGUA [C48A A64G],0.127

row,Variant,self-cleavage
1,GUCCUCUUUCACGUGCGCGUGAAAGAGAGAAGUGAACCAGAGAAACUCACGUUGUGGUAUAUUAACUGGUA [A47U C65A],0.0949
2,GUCCUCUUUCACGUGCGCGUGAAAGAGAGAAGUGAACCAGAGAAACUCACGUUGUGGUAUAUUAGCUGGUA [A47U C65G],0.139
3,GUCCUCUUUCACGUGCGCGUGAAAGAGAGAAGUGAACCAGAGAAACAAGCGUUGUGGUAUAUUACCUGGUA [C48A A49G],0.215
4,GUCCUCUUUCACGUGCGCGUGAAAGAGAGAAGUGAACCAGAGAAACAAUCGUUGUGGUAUAUUACCUGGUA [C48A A49U],0.172
5,GUCCUCUUUCACGUGCGCGUGAAAGAGAGAAGUGAACCAGAGAAACAACCGUUGUGGUAUAUUACCUGGUA [C48A A49C],0.155
6,GUCCUCUUUCACGUGCGCGUGAAAGAGAGAAGUGAACCAGAGAAACAAACGUUGUGGUAUAUUACCUAGUA [C48A G68A],0.165
7,GUCCUCUUUCACGUGCGCGUGAAAGAGAGAAGUGAACCAGAGAAACAAACGUUGUGGUAUAUUACCUCGUA [C48A G68C],0.246
8,GUCCUCUUUCACGUGCGCGUGAAAGAGAGAAGUGAACCAGAGAAACUCACGUUGUUGUAUAUUACCUGGUA [A47U G56U],0.148
9,GUCCUCUUUCACGUGCGCGUGAAAGAGAGAAGUGAACCAGAGAAACUCACGUUGUGUUAUAUUACCUGGUA [A47U G57U],0.0955
10,GUCCUCUUUCACGUGCGCGUGAAAGAGAGAAGUGAACCAGAGAAACAAACGCUGUGGUAUAUUACCUGGUA [C48A U52C],0.162
11,GUCCUCUUUCACGUGCGCGUGAAAGAGAGAAGUGAACCAGAGAAACAAACGGUGUGGUAUAUUACCUGGUA [C48A U52G],0.131
12,GUCCUCUUUCACGUGCGCGUGAAAGAGAGAAGUGAACCAGAGAAACUCACUUUGUGGUAUAUUACCUGGUA [A47U G51U],0.166
13,GUCCUCUUUCACGUGCGCGUGAAAGAGAGAAGUGAACCAGAGAAACUCACCUUGUGGUAUAUUACCUGGUA [A47U G51C],0.31
14,GUCCUCUUUCACGUGCGCGUGAAAGAGAGAAGUGAACCAGAGAAACUCACGUUGUGGUAAAUUACCUGGUA [A47U U60A],0.0931
15,GUCCUCUUUCACGUGCGCGUGAAAGAGAGAAGUGAACCAGAGAAACUCACGUUGUGGUAGAUUACCUGGUA [A47U U60G],0.0964
16,GUCCUCUUUCACGUGCGCGUGAAAGAGAGAAGUGAACCAGAGAAACUCACGUUGUGGUACAUUACCUGGUA [A47U U60C],0.0859
17,GUCCUCUUUCACGUGCGCGUGAAAGAGAGAAGUGAACCAGAGAAACAAACGUUGUGGUAUUUUACCUGGUA [C48A A61U],0.163
18,GUCCUCUUUCACGUGCGCGUGAAAGAGAGAAGUGAACCAGAGAAACUCACGUUGUGGUAUAUUACCUGUUA [A47U G69U],0.138
19,GUCCUCUUUCACGUGCGCGUGAAAGAGAGAAGUGAACCAGAGAAACUCACGUUGUGGUAUAUUACCUGAUA [A47U G69A],0.107

# — the RNAGym collection of RNA variant scans (doi:10.7554/elife.80360)
